From patent US20100273186A1, “SPLIT MUTANT HYDROLASE FUSION REPORTER AND USES THEREOF” (Promega Corporation, priority 2007, published 2010) come the findings set out here.

Some targets named below: FKBP-hRL (112-311) (UniProt P62942); hRL (112-311)-FKBP (UniProt P27652); FKBP-hRL (92-311) (UniProt P62942); hRL (92-311)-FKBP (UniProt P27652).
What all share (assay): cell-based or functional assay

Sequence of FKBP-hRL (112-311) (P62942 other isoform, or with tags, fused parts or gaps): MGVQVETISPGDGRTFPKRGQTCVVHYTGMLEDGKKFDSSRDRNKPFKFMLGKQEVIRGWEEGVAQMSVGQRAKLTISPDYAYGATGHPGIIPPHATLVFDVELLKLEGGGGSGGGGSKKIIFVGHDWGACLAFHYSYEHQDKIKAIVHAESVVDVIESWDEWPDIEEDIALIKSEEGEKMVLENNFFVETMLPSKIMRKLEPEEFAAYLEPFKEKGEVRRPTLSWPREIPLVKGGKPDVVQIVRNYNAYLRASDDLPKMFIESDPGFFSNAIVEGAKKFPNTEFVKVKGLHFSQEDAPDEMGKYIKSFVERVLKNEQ
Sequence of FKBP-hRL (92-311) (P62942 other isoform, or with tags, fused parts or gaps): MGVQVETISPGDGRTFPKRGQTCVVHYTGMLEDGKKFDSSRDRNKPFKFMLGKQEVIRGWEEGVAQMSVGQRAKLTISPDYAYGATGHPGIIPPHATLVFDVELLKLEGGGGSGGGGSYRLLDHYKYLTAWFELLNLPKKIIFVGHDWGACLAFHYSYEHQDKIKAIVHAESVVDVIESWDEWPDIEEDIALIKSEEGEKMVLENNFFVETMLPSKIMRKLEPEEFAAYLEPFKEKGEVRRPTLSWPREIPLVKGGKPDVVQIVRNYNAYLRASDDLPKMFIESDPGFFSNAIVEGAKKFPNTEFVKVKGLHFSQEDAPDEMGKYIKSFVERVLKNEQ
Sequence of hRL (112-311)-FKBP (P27652 other isoform, or with tags, fused parts or gaps): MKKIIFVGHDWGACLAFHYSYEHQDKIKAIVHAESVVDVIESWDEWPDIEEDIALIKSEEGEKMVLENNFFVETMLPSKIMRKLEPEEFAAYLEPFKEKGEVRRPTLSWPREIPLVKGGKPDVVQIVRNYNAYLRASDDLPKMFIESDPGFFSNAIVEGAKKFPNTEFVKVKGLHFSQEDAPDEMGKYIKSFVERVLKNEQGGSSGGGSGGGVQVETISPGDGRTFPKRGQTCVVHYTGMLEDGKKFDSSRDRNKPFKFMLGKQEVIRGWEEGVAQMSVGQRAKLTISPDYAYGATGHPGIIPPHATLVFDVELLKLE
Sequence of hRL (1-111)-FRB (P27652 other isoform, or with tags, fused parts or gaps): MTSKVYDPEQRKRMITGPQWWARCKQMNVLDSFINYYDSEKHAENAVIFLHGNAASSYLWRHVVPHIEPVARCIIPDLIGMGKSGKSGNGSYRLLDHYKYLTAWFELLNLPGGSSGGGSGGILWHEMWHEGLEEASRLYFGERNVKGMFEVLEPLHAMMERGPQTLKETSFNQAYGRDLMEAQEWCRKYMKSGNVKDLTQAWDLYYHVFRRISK
Sequence of hRL (92-311)-FKBP (P27652 other isoform, or with tags, fused parts or gaps): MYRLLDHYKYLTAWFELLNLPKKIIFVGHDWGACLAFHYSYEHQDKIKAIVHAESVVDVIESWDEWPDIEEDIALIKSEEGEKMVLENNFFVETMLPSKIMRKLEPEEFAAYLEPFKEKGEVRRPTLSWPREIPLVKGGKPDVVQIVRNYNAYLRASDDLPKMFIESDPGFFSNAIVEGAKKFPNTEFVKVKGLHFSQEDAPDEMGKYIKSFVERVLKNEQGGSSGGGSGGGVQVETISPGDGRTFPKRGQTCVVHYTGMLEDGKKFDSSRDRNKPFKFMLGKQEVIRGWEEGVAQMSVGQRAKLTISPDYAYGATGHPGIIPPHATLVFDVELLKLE
Sequence of hRL (1-91)-FRB (P27652 other isoform, or with tags, fused parts or gaps): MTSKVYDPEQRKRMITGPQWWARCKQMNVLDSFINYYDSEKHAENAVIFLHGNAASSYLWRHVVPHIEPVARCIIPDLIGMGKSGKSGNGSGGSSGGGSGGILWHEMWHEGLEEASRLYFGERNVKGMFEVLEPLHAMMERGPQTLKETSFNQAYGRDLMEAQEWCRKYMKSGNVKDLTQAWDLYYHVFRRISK

As for “FRB-hRL (1-111) (from UniProt P42345 2021-2113; P27652 1-111)”, the Renilla luciferase activity (PCA, TnT lysate) (fold (+rapamycin against no rapamycin)) worked out at 5.3 with FKBP-hRL (112-311) and 46 with hRL (112-311)-FKBP.

In the case of “hRL (1-91)-FRB (from UniProt P27652 1-91; P42345 2021-2113)”, in the assay with FKBP-hRL (92-311), the Renilla luciferase activity (PCA, TnT lysate) (fold (+rapamycin against no rapamycin)) amounted to 8.6.

With “hRL (1-111)-FRB (from UniProt P27652 1-111; P42345 2021-2113)”, the Renilla luciferase activity (PCA, TnT lysate) (fold (+rapamycin against no rapamycin)) with FKBP-hRL (112-311) turned out to be 81.

Regarding “FRB-hRL (1-91) (from UniProt P42345 2021-2113; P27652 1-91)”, the Renilla luciferase activity (PCA, TnT lysate) (fold (+rapamycin against no rapamycin)) with hRL (92-311)-FKBP is 134.
